{"source": "paper PMC5963859", "test_system": "GST-MBNL1 (GST-MBNL1Δ101 in Methods)", "experiment": "EMSA", "conditions": "EMSA: 0.75 mM MgCl2, 50 mM Tris-HCl pH 7.0, 75 mM NaCl, 37.5 mM KCl, 5.25 mM DTT, 0.1 mg/ml BSA, 0.1 mg/ml bulk tRNA, RNasin 0.4 U/ul; 20 min on ice, gel at …", "data": [{"sequence": "CUG 10x RNA", "values": [{"measurement": "IC50", "result": 0.1, "unit": "µM"}]}]}
